Reference: patent US20160319361, “OLIGONUCLEOTIDE PROBES AND USES THEREOF” (CARIS LIFE SCIENCES SWITZERLAND HOLDINGS GMBH, published 2016)

Target: T1, EpCAM (UniProt P16422 P16422:24-265)
T1 sequence: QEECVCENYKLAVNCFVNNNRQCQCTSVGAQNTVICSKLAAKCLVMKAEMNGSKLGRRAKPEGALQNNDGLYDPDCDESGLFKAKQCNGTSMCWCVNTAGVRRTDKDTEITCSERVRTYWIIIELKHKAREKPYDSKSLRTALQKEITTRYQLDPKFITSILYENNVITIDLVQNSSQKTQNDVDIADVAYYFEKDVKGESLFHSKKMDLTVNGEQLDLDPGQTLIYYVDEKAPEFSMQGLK
Assay: SPR; immobilized biotinylated aptamer, EpCAM analyte; HBS-EP+ buffer
Conditions: label: biotin via tail
Procedure: FIG. 5 illustrates results from a binding assay showing the binding affinity of an exemplary aptamer (Aptamer ID BTX176881 (SEQ ID NO: 3)) to the target EpCAM protein at various target concentrations. The aptamer to be tested is fixed to a substrate using a biotin tail and is incubated with various concentrations of target (125, 250 and 500 nM). The test is performed on a surface plasmon resonance machine (SPR). The SPR machine detects association and disassociation of the aptamer and the target. Target is applied until the association and disassociation events are equal, resulting in a plateau of the curve. The equations describing the curve at each concentration can then be used to calculate the KD of the aptamer (see Table 5).
The Biacore 200 control software is programmed with the following conditions: Solution: HBS-EP+ Buffer; Number of cycles: 3; Contact time: 120s; Flow rate: 30 μl/min; Dissociation time: 300s; Solution: Glycine-HCl pH 2.5; Contact time: 120s; Flow rate: 20 μl/min; Stabilization period: 0s. The binding affinities of these aptamers are then measured using the SPR assay above, or an alternate in vitro assay assessing the aptamer for a desired function.

CCCGATTTTGGTACCGCGGGGATCCGCGTCTG (ssDNA) [BTX176881] showed a Kd of 8.4 nM.
